Experiments:
[1] = target: T1, Shigella flexneri Spa15 (residues 1-133), N-terminal His tag, unlabelled (Shigella flexneri), P35530; test: SEC; HiLoad 26/60 Superdex 75, 20 mM Tris-HCl (pH 7.5), 150 mM NaCl; Spa15 alone; conditions: remark: other sources report otherwise
T1 chain: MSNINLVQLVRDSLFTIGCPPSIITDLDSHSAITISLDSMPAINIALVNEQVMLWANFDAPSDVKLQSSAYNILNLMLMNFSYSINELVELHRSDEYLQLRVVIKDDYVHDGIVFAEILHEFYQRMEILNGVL

[2] = target: T1, Shigella flexneri Spa15 (residues …); test: multi-angle laser light scattering; co-purified Spa15:IpgB1 complex; data not shown; conditions: remark: other sources report otherwise

B1: Shigella flexneri Spa15 (residues 1-133), N-terminal His tag, unlabelled, P35530 1-133 (natural protein)
chain: MSNINLVQLVRDSLFTIGCPPSIITDLDSHSAITISLDSMPAINIALVNEQVMLWANFDAPSDVKLQSSAYNILNLMLMNFSYSINELVELHRSDEYLQLRVVIKDDYVHDGIVFAEILHEFYQRMEILNGVL
Binder B1 has a stoichiometry N [1] of 2 and a stoichiometry N [2] of 2.

Reference: article PMC3021122
